Values quoted from earlier work, collected in paper PMC10219982.

Molecular target: Follistatin (UniProt P19883)
Test: SPR

Chain of UniProt P19883 (P19883 30-344): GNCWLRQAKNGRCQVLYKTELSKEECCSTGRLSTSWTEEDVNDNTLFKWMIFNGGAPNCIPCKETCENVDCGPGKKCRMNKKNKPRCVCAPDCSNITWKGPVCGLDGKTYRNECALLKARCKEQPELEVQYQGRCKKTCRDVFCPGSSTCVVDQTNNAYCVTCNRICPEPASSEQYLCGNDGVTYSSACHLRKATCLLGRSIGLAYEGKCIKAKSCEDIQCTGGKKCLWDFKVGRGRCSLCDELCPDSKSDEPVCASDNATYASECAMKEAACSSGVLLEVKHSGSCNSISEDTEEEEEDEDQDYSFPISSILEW

In the case of BMP4 (from UniProt P12644), the Kd is given as 22.5 nM.
